Assay [1] addresses HA glycoprotein of A/Puerto Rico/8/1934 (H1N1) influenza virus, purified (influenza virus A/Puerto Rico/8/1934 …, UniProt P03452 18-528). Briefly: ELISA, plate coated with the fusion protein.
The target in a further assay is T1, D2 domain of human LAG-3 (human, UniProt P18627 169-260).
T1 sequence: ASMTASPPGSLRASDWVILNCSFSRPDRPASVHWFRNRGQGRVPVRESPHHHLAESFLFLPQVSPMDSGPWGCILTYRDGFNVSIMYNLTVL
Put plainly: not described.

B1: KIR2DL1 fused to the IgG1 Fc domain (Fc fusion)
chain: HEGVHRKPSLLAHPGRLVKSEETVILQCWSDVMFEHFLLHREGMFNDTLRLIGEHHDGVSKANFSISRMTQDLAGTYRCYGSVTHSPYQVSAPSDPLDIVIIGLYEKPSLSAQLGPTVLAGENVTLSCSSRSSYDMYHLSREGEAHERRLPAGPKVNGTFQADFPLGPATHGGTYRCFGSFHDSPYEWSKSSDPLLVSVTGNPSNSWPSPTEPSSKTGNPRHLH
Take B1: the binding result in assay [1] is “no binding”.

B2: 23DKTYB19 (antibody, V domains shown)
VH: QVQLKQSDAELVKPGASVKISCKVSGYTFTDHTIHWMKQRPEQGLEWIGYIYPRDGSTKYNEKFKGKATLTADKSSSTAYMQLNSLTSEDSAVCFCARTGSYAMDYWGQGTSVTVSS
VL: DIVMTQSPASLAVSLGQRATISCKASQSVDYDGDSYMNWYQQKPGQPPKLLIYAASNLESGIPARFSGSGSGTDFTLNIHPVEEEDAATYYCQQSNEDPYTFGG
Take B2: the binding result in the assay with D2 domain of human LAG-3 is on record as “binds”.

B3: 23DKTYB4 (antibody, V domains shown)
VH: QVQLKQSDDELVKPGASVKISCKVSGYTFTDHTIHWMKQRPEQGLEWIGYIYPRDGSTKYNEKFKGKATLTADKSSSTAYMQLNSLTSEDSAVYFCARRRSYYGSSFYFDVWGTGTTVSV
VL: DIQMTQSTSSLSASLGDRVTISCRASQDISNYLNWYQQKPDGTVKLLIYYTSRLHSGVPSRFSGSGSGTDYSLTISNLEQEDIATYFCQQGNTLPWTFGGGTK
As for B3, the binding result in the assay with D2 domain of human LAG-3 is recorded as “binds”.
